Measured values published in doi:10.1101/2025.10.14.682262.
Where a chain is given by its changes, count along the chain named. Read-outs that look alike come from different tables or passages of the source.

How the values were obtained:
Test in all cases: EMSA
PAN 6 Cys to Ser = biological target: T1, PAN 6 Cys to Ser (Arabidopsis thaliana, UniProt Q9SX27 1-452, C27S;C68S;C87S;C114S;C154S;C340S)
T1 sequence: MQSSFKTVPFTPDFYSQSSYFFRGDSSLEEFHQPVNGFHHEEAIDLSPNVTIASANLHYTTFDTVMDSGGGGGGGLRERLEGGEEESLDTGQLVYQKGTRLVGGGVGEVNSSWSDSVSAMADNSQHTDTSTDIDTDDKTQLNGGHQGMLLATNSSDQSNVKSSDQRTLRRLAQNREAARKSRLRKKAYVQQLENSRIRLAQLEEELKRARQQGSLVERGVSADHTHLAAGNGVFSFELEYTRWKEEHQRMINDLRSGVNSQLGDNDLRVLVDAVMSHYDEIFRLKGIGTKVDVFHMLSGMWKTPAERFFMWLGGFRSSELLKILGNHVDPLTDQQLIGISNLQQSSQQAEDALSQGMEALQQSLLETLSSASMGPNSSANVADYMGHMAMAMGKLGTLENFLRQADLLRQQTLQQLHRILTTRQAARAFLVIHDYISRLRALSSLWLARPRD

PAN (…) WT [1] = biological target: T2, PAN (…) WT (Arabidopsis thaliana, UniProt Q9SX27 1-452)
T2 sequence: T1 sequence with S27C, S68C, S87C, S114C, S154C, S340C

PAN 5 Cys to Ser = biological target: T3, PAN 5 Cys to Ser (Arabidopsis thaliana, UniProt Q9SX27 1-452, C27S;C68S;C87S;C114S;C154S)
T3 sequence: T1 sequence with S340C

PAN (…) WT [2] = biological target: T2, PAN (…) WT; remark: listed apart in the source

B1: TGACGT WT probe (dsDNA)
DNA 1: ATCAGATCTAATTGACGTGATAGCATATAGA
DNA 2: TCTATATGCTATCACGTCAATTAGATCTGAT
- binding result (PAN 6 Cys to Ser): binds
- binding result (PAN (…) WT [1]): binds
- binding result (PAN 5 Cys to Ser): binds

B2: TGATTT mutated probe (M) (dsDNA)
DNA 1: B1 DNA 1 with C16T, G17T
DNA 2: B1 DNA 2 with C15A, G16A
- binding result (PAN (…) WT [2]): no binding
